Measurements taken from paper PMC7935881.

How the values were obtained:
[1] = biological target: no-cys-DgkA (cysteine-free Escherichia coli diacylglycerol kinase) (Escherichia coli); test: solid-state NMR structure; MAS ssNMR, intra- and inter-monomer PRE distance restraints with CS-Rosetta; DgkA reconstituted in bilayers of E. coli membrane total extracts; 272 K
[2] = biological target: no-cys-DgkA (cysteine-free Escherichia coli diacylglycerol kinase) (Escherichia coli); test: SDS-PAGE; DgkA refolded/reassembled in buffer (8 M urea, 0.2% SDS, 0.08% E. coli membrane total extracts, 0.96% OG, pH 7.8)

- stoichiometry N [1]: 3
- stoichiometry N [2]: 3
Substance: no-cys-DgkA (cysteine-free Escherichia coli diacylglycerol kinase) (enzyme)
